Assay results: patent US20200199204A1 (UNITED STATES OF AMERICA AS REPRESENTED BY THE SECRETARY …, published 2020)

Tests used:
Test in all cases: cell-based or functional assay
[1] = biological target: HIV-1 Env of RHPA.7 (HIV-1)
[2] = biological target: HIV-1 Env of WITO.33 (HIV-1)
[3] = biological target: HIV-1 Env of Q23.17 (HIV-1)
[4] = biological target: HIV-1 Env of CAP244.D3 (HIV-1)
[5] = biological target: HIV-1 Env of CAP256.SU (HIV-1)
[6] = biological target: HIV-1 Env of RW020.2 (HIV-1)
[7] = biological target: HIV-1 Env of Q769.d22 (HIV-1)
[8] = biological target: HIV-1 Env of 191821.E6.1 (HIV-1)
[9] = biological target: HIV-1 Env of CAAN.A2 (HIV-1)
[10] = biological target: HIV-1 Env of CM244.ec1 (HIV-1)
[11] = biological target: HIV-1 Env of ZM135.10a (HIV-1)
[12] = biological target: HIV-1 Env of THRO.18 (HIV-1)
[13] = biological target: HIV-1 Env of ZM233.6 (HIV-1)
[14] = biological target: HIV-1 Env of 3016.V5.c36 (HIV-1)
[15] = biological target: HIV-1 Env of 96ZM651.02 (HIV-1)
[16] = biological target: HIV-1 Env of Q259.d2.17 (HIV-1)
[17] = biological target: HIV-1 Env of AC10.29 (HIV-1)
[18] = biological target: HIV-1 Env of 0260.v5.c36 (HIV-1)
[19] = biological target: HIV-1 Env of REJO.67 (HIV-1)
[20] = biological target: HIV-1 Env of DU156.12 (HIV-1)
[21] = biological target: HIV-1 Env of QH0692.42 (HIV-1)
[22] = biological target: HIV-1 Env of MB201 (HIV-1)
[23] = biological target: HIV-1 Env of ZM249.1 (HIV-1)
[24] = biological target: HIV-1 Env of KER2018.11 (HIV-1)
[25] = biological target: HIV-1 Env of Q168.a2 (HIV-1)
[26] = biological target: HIV-1 Env of KER2008.12 (HIV-1)
[27] = biological target: HIV-1 Env of 6535.3 (HIV-1)
[28] = biological target: HIV-1 Env of ZM109.4 (HIV-1)
[29] = biological target: HIV-1 Env of SC422.8 (HIV-1)
[30] = biological target: HIV-1 Env of CAP210.E8 (HIV-1)
[31] = biological target: HIV-1 Env of ZM214.15 (HIV-1)
[32] = biological target: HIV-1 Env of MB539.2B7 (HIV-1)
[33] = biological target: HIV-1 Env of BG505.w6m (HIV-1)
[34] = biological target: HIV-1 Env of ZM197.7 (HIV-1)
[35] = biological target: HIV-1 Env of CAP256.PI (HIV-1)
[36] = biological target: HIV-1 Env of CAP45.G3 (HIV-1)
[37] = biological target: HIV-1 Env of DU172.17 (HIV-1)
[38] = biological target: HIV-1 Env of Q461.e2 (HIV-1)
[39] = biological target: HIV-1 Env of 6405.v4.c34 (HIV-1)
[40] = biological target: HIV-1 Env of PVO.04 (HIV-1)
[41] = biological target: HIV-1 Env of C1080.c3 (HIV-1)
[42] = biological target: HIV-1 Env of DU422.01 (HIV-1)
[43] = biological target: HIV-1 Env of TRJO.58 (HIV-1)
[44] = biological target: HIV-1 Env of Q842.d12 (HIV-1)
[45] = biological target: HIV-1 Env of TRO.11 (HIV-1)
[46] = biological target: HIV-1 Env of UG037.8 (HIV-1)
[47] = biological target: HIV-1 Env of ZM53.12 (HIV-1)

B1: CAP256-VRC26.07 (antibody, V domains shown)
VH: EVQLVESGGGVVQPGRSLRLSCVGSQFSFNRYGMHWVRQAPGKGLEWVAGISFDGTDRYHADNVWGRFTISRDNSKNTLYLQMSSLRAEDTALYYCAKDLREDECEEWWSDYYDFGKKLPCRKSRGVAGVFDKWGQGTMVTVSS
VL: QAVLTQPPSVSAAPGQNVTISCSGSGSNIGNNFVSWYQQRPGTAPKLLIYESNKRPSGIPDRFSGSKSGTSATLAITGLQTGDEAYYYCATWAARLNSARVFGTGTMVTVLG
- neutralization IC50 [1]: > 50 µg/mL
- neutralization IC50 [2]: > 50 µg/mL
- neutralization IC50 [3]: > 50 µg/mL
- neutralization IC50 [4]: > 50 µg/mL
- neutralization IC50 [5]: 0.008 µg/mL
- neutralization IC50 [6]: > 50 µg/mL
- neutralization IC50 [7]: > 50 µg/mL
- neutralization IC50 [8]: > 50 µg/mL
- neutralization IC50 [9]: > 50 µg/mL
- neutralization IC50 [10]: 40.1 µg/mL
- neutralization IC50 [11]: > 50 µg/mL
- neutralization IC50 [12]: > 50 µg/mL
- neutralization IC50 [13]: > 50 µg/mL
- neutralization IC50 [14]: > 50 µg/mL
- neutralization IC50 [15]: > 50 µg/mL
- neutralization IC50 [16]: 42.5 µg/mL
- neutralization IC50 [17]: > 50 µg/mL
- neutralization IC50 [18]: > 50 µg/mL
- neutralization IC50 [19]: > 50 µg/mL
- neutralization IC50 [20]: > 50 µg/mL
- neutralization IC50 [21]: > 50 µg/mL
- neutralization IC50 [22]: > 50 µg/mL
- neutralization IC50 [23]: 44.1 µg/mL
- neutralization IC50 [24]: 3.1 µg/mL
- neutralization IC50 [25]: > 50 µg/mL
- neutralization IC50 [26]: > 50 µg/mL
- neutralization IC50 [27]: > 50 µg/mL
- neutralization IC50 [28]: > 50 µg/mL
- neutralization IC50 [29]: > 50 µg/mL
- neutralization IC50 [30]: 0.021 µg/mL
- neutralization IC50 [31]: > 50 µg/mL
- neutralization IC50 [32]: > 50 µg/mL
- neutralization IC50 [33]: > 50 µg/mL
- neutralization IC50 [34]: > 50 µg/mL
- neutralization IC50 [35]: > 50 µg/mL
- neutralization IC50 [36]: > 50 µg/mL
- neutralization IC50 [37]: > 50 µg/mL
- neutralization IC50 [38]: > 50 µg/mL
- neutralization IC50 [39]: > 50 µg/mL
- neutralization IC50 [40]: > 50 µg/mL
- neutralization IC50 [41]: > 50 µg/mL
- neutralization IC50 [42]: > 50 µg/mL
- neutralization IC50 [43]: > 50 µg/mL
- neutralization IC50 [44]: > 50 µg/mL
- neutralization IC50 [45]: > 50 µg/mL
- neutralization IC50 [46]: > 50 µg/mL
- neutralization IC50 [47]: 0.014 µg/mL

B2: CAP256-VRC26.08 (antibody, V domains shown)
VH: EVQLVESGGGVVQPGRSLTLSCAASQFTFSNYGMHWVRQAPGKGLEWVASVSNDGTKKYHGDSVWGRFTISRDNSKNTLFLQMSSLRAEDTAVYFCVRDQREDECEEWWSDYYDFGRELPCRKFRGLGLAGIFDIWGHGTMVTVSS
VL: QSALTQPPSVSAAPGQKVTISCSGNSSNIGNNFVSWYQQVPGTAPKLLLYETYRRPSGIPDRFSGSKSGTSATLAITGLQTGDEADYYCTVWGVRKGVGAVFGTGTKVTVLG
- neutralization IC50 [1]: > 50 µg/mL
- neutralization IC50 [2]: > 50 µg/mL
- neutralization IC50 [3]: 13.3 µg/mL
- neutralization IC50 [4]: > 50 µg/mL
- neutralization IC50 [5]: 0.003 µg/mL
- neutralization IC50 [6]: > 50 µg/mL
- neutralization IC50 [7]: > 50 µg/mL
- neutralization IC50 [8]: 0.37 µg/mL
- neutralization IC50 [9]: > 50 µg/mL
- neutralization IC50 [10]: 1.09 µg/mL
- neutralization IC50 [11]: > 50 µg/mL
- neutralization IC50 [12]: > 50 µg/mL
- neutralization IC50 [14]: 0.013 µg/mL
- neutralization IC50 [15]: 2.82 µg/mL
- neutralization IC50 [16]: 0.009 µg/mL
- neutralization IC50 [17]: > 50 µg/mL
- neutralization IC50 [18]: > 50 µg/mL
- neutralization IC50 [19]: > 50 µg/mL
- neutralization IC50 [20]: 0.059 µg/mL
- neutralization IC50 [21]: > 50 µg/mL
- neutralization IC50 [22]: > 50 µg/mL
- neutralization IC50 [23]: 0.076 µg/mL
- neutralization IC50 [24]: 0.003 µg/mL
- neutralization IC50 [25]: 0.256 µg/mL
- neutralization IC50 [26]: > 50 µg/mL
- neutralization IC50 [27]: > 50 µg/mL
- neutralization IC50 [28]: > 50 µg/mL
- neutralization IC50 [29]: > 50 µg/mL
- neutralization IC50 [30]: 0.006 µg/mL
- neutralization IC50 [31]: > 50 µg/mL
- neutralization IC50 [32]: 31.7 µg/mL
- neutralization IC50 [33]: 0.143 µg/mL
- neutralization IC50 [34]: 0.008 µg/mL
- neutralization IC50 [35]: > 50 µg/mL
- neutralization IC50 [36]: 4.69 µg/mL
- neutralization IC50 [37]: > 50 µg/mL
- neutralization IC50 [38]: 0.969 µg/mL
- neutralization IC50 [39]: > 50 µg/mL
- neutralization IC50 [40]: 11.8 µg/mL
- neutralization IC50 [41]: 0.012 µg/mL
- neutralization IC50 [42]: 0.008 µg/mL
- neutralization IC50 [43]: > 50 µg/mL
- neutralization IC50 [44]: 40.4 µg/mL
- neutralization IC50 [45]: > 50 µg/mL
- neutralization IC50 [46]: > 50 µg/mL
- neutralization IC50 [47]: 0.004 µg/mL
